Experimental data taken from the supplement of paper PMC9112550, “Optimization of the antimicrobial peptide Bac7 by deep mutational scanning” (BMC Biology, 2022).

Test system: Escherichia coli TOP10
Experiment: shrunken log2 fold change of peptide-encoding DNA abundance (4.5 h post-induction vs induction); higher = less antimicrobial activity (less host growth inhibition)
Details: time post-induction: 4.5 h; library: site-saturation at positions 5, 18, 19, 20
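Further: peptides expressed intracellularly from a pBAD plasmid library in pooled LB shake-flask culture, induced with 0.3% L-arabinose, DNA abundance read by NGS, three biological replicates, DESeq2 with apeglm shrinkage.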

| Sequence | shrunken log2 fold change |
| --- | --- |
| RRIRHRPPRLPRPRPRPKYDPRP | -0.246 |
| RRIRHRPPRLPRPRPRPLAPPRP | 0.196 |
| RRIRHRPPRLPRPRPRPLCKPRP | 0.0111 |
| RRIRHRPPRLPRPRPRPLDSPRP | -0.448 |
| RRIRHRPPRLPRPRPRPLGGPRP | -0.0164 |
| RRIRHRPPRLPRPRPRPLILPRP | 0.0886 |
| RRIRHRPPRLPRPRPRPLKEPRP | -0.0179 |
| RRIRHRPPRLPRPRPRPLKMPRP | -0.182 |
| RRIRHRPPRLPRPRPRPLLEPRP | 0.0851 |
| RRIRHRPPRLPRPRPRPLLGPRP | -0.107 |
| RRIRHRPPRLPRPRPRPLMEPRP | -0.348 |
| RRIRHRPPRLPRPRPRPLMKPRP | -0.581 |
| RRIRHRPPRLPRPRPRPLPHPRP | -0.162 |
| RRIRHRPPRLPRPRPRPLPKPRP | 0.389 |
| RRIRHRPPRLPRPRPRPLPMPRP | -0.00404 |
| RRIRHRPPRLPRPRPRPLPYPRP | -0.137 |
| RRIRHRPPRLPRPRPRPLQNPRP | -0.00367 |
| RRIRHRPPRLPRPRPRPLQYPRP | -0.582 |
| RRIRHRPPRLPRPRPRPLRKPRP | 0.0993 |
| RRIRHRPPRLPRPRPRPLRWPRP | 0.3 |
| RRIRHRPPRLPRPRPRPLYIPRP | -0.777 |
| RRIRHRPPRLPRPRPRPMCTPRP | -0.696 |
| RRIRHRPPRLPRPRPRPMDDPRP | -0.118 |
| RRIRHRPPRLPRPRPRPMGPPRP | 0.0818 |
| RRIRHRPPRLPRPRPRPMIFPRP | -0.251 |

| Sequence | shrunken log2 fold change |
| --- | --- |
| RRIRHRPPRLPRPRPRPMILPRP | -0.0484 |
| RRIRHRPPRLPRPRPRPMIMPRP | -0.266 |
| RRIRHRPPRLPRPRPRPMKQPRP | -0.0525 |
| RRIRHRPPRLPRPRPRPMMKPRP | 0.0118 |
| RRIRHRPPRLPRPRPRPMMYPRP | -0.0859 |
| RRIRHRPPRLPRPRPRPMNEPRP | -0.275 |
| RRIRHRPPRLPRPRPRPMNNPRP | -0.759 |
| RRIRHRPPRLPRPRPRPMNQPRP | -0.221 |
| RRIRHRPPRLPRPRPRPMPFPRP | 0.0462 |
| RRIRHRPPRLPRPRPRPMQQPRP | -0.174 |
| RRIRHRPPRLPRPRPRPMRKPRP | 0.0179 |
| RRIRHRPPRLPRPRPRPMVFPRP | 0.14 |
| RRIRHRPPRLPRPRPRPMYCPRP | -0.125 |
| RRIRHRPPRLPRPRPRPMYFPRP | -0.00207 |
| RRIRHRPPRLPRPRPRPMYTPRP | 0.588 |
| RRIRHRPPRLPRPRPRPMYYPRP | -0.681 |
| RRIRHRPPRLPRPRPRPNATPRP | 0.255 |
| RRIRHRPPRLPRPRPRPNAVPRP | 0.0142 |
| RRIRHRPPRLPRPRPRPNAWPRP | 0.341 |
| RRIRHRPPRLPRPRPRPNDIPRP | -0.0322 |
| RRIRHRPPRLPRPRPRPNEAPRP | 0.0232 |
| RRIRHRPPRLPRPRPRPNEPPRP | -0.00438 |
| RRIRHRPPRLPRPRPRPNFQPRP | -0.161 |
| RRIRHRPPRLPRPRPRPNGHPRP | -0.0552 |
| RRIRHRPPRLPRPRPRPNGQPRP | 0.024 |

| Sequence | shrunken log2 fold change |
| --- | --- |
| RRIRHRPPRLPRPRPRPNHHPRP | -0.797 |
| RRIRHRPPRLPRPRPRPNHNPRP | -0.954 |
| RRIRHRPPRLPRPRPRPNIHPRP | -0.364 |
| RRIRHRPPRLPRPRPRPNKIPRP | -0.622 |
| RRIRHRPPRLPRPRPRPNLEPRP | 0.127 |
| RRIRHRPPRLPRPRPRPNLTPRP | -0.588 |
| RRIRHRPPRLPRPRPRPNMNPRP | -0.424 |
| RRIRHRPPRLPRPRPRPNPNPRP | -0.202 |
| RRIRHRPPRLPRPRPRPNPTPRP | -0.193 |
| RRIRHRPPRLPRPRPRPNSIPRP | -0.0178 |
| RRIRHRPPRLPRPRPRPNSPPRP | -0.337 |
| RRIRHRPPRLPRPRPRPNSYPRP | 0.118 |
| RRIRHRPPRLPRPRPRPNTPPRP | 0.0157 |
| RRIRHRPPRLPRPRPRPNVLPRP | -0.0715 |
| RRIRHRPPRLPRPRPRPNYCPRP | -0.0948 |
| RRIRHRPPRLPRPRPRPNYEPRP | -0.586 |
| RRIRHRPPRLPRPRPRPNYIPRP | -1.35 |
| RRIRHRPPRLPRPRPRPNYWPRP | -0.358 |
| RRIRHRPPRLPRPRPRPPAAPRP | 0.0555 |
| RRIRHRPPRLPRPRPRPPAQPRP | 0.633 |
| RRIRHRPPRLPRPRPRPPCGPRP | 0.176 |
| RRIRHRPPRLPRPRPRPPDAPRP | 0.348 |
| RRIRHRPPRLPRPRPRPPDHPRP | 0.265 |
| RRIRHRPPRLPRPRPRPPEGPRP | 0.168 |
| RRIRHRPPRLPRPRPRPPFWPRP | 0.0835 |
